From paper PMC7838286

How the values were obtained:
[1] = biological target: Cp150 homodimer (Cp149 variant with a C-terminal cysteine) (Hepatitis B Virus); test: cryo-EM structure; capsids left after treatment of co-assembled capsids with 3 M urea and 100 uM EDTA; C1 symmetry throughout; complete capsid 6.2 Å, holey capsids 10.8 Å and 12.9 Å
[2] = biological target: Cp150 homodimer (Cp149 variant with a C-terminal cysteine) (Hepatitis B Virus); test: SEC; 2 uM Cp150Bo with 4 uM holey capsid, 300 mM NaCl, 23 °C, 24 h; 2 uM Cp150Bo alone with 300 mM NaCl as control; Superose 6 with absorbance at 280 and 504 nm and fluorescence at 512 nm

Substance	stoichiometry N [1] [dimers]	Cp150Bo dimers added per holey capsid (dimers per holey capsid) [2]
Cp150 homodimer (Cp149 variant with a C-terminal cysteine) (domain or fragment)	120	
Cp150Bo homodimer (BODIPY-FL-labeled Cp150) (domain or fragment)		16
